The values below are quoted from earlier work in publication PMC2862573.

Usually Kd stands for the constant that tells how readily two partners part at equilibrium.

The target in the data set is CCR2 loop-2 peptide (Homo sapiens).

Turning to MCP-1 (from UniProt P13500), the Kd is 22 µM.
